Test results as given in patent publication US9433687B2, “Anti-Notch3 antibodies and antibody-drug conjugates” (Pfizer Inc., priority 2012, dated 2016).
Values joined by “and” are separate entries in the source; they are usually repeats but may differ in a detail not shown here. Equal entries are not always repeated.

Tests used:
[1] = biological target: T1, MDA-MB-468/hNotch3 (Homo sapiens, UniProt Q9UM47); test: Flow cytometry (FACS) binding, MDA-MB-468/hNotch3; details: 4 μg/mL antibody
T1 construct: cell lines engineered to over-express full length human Notch3 protein: MDA-MB-468/hNotch3 and U2OS/hNotch3; expressed in transfected cells; host or cells: MDA-MB-468
T1 sequence (Q9UM47 40-2321): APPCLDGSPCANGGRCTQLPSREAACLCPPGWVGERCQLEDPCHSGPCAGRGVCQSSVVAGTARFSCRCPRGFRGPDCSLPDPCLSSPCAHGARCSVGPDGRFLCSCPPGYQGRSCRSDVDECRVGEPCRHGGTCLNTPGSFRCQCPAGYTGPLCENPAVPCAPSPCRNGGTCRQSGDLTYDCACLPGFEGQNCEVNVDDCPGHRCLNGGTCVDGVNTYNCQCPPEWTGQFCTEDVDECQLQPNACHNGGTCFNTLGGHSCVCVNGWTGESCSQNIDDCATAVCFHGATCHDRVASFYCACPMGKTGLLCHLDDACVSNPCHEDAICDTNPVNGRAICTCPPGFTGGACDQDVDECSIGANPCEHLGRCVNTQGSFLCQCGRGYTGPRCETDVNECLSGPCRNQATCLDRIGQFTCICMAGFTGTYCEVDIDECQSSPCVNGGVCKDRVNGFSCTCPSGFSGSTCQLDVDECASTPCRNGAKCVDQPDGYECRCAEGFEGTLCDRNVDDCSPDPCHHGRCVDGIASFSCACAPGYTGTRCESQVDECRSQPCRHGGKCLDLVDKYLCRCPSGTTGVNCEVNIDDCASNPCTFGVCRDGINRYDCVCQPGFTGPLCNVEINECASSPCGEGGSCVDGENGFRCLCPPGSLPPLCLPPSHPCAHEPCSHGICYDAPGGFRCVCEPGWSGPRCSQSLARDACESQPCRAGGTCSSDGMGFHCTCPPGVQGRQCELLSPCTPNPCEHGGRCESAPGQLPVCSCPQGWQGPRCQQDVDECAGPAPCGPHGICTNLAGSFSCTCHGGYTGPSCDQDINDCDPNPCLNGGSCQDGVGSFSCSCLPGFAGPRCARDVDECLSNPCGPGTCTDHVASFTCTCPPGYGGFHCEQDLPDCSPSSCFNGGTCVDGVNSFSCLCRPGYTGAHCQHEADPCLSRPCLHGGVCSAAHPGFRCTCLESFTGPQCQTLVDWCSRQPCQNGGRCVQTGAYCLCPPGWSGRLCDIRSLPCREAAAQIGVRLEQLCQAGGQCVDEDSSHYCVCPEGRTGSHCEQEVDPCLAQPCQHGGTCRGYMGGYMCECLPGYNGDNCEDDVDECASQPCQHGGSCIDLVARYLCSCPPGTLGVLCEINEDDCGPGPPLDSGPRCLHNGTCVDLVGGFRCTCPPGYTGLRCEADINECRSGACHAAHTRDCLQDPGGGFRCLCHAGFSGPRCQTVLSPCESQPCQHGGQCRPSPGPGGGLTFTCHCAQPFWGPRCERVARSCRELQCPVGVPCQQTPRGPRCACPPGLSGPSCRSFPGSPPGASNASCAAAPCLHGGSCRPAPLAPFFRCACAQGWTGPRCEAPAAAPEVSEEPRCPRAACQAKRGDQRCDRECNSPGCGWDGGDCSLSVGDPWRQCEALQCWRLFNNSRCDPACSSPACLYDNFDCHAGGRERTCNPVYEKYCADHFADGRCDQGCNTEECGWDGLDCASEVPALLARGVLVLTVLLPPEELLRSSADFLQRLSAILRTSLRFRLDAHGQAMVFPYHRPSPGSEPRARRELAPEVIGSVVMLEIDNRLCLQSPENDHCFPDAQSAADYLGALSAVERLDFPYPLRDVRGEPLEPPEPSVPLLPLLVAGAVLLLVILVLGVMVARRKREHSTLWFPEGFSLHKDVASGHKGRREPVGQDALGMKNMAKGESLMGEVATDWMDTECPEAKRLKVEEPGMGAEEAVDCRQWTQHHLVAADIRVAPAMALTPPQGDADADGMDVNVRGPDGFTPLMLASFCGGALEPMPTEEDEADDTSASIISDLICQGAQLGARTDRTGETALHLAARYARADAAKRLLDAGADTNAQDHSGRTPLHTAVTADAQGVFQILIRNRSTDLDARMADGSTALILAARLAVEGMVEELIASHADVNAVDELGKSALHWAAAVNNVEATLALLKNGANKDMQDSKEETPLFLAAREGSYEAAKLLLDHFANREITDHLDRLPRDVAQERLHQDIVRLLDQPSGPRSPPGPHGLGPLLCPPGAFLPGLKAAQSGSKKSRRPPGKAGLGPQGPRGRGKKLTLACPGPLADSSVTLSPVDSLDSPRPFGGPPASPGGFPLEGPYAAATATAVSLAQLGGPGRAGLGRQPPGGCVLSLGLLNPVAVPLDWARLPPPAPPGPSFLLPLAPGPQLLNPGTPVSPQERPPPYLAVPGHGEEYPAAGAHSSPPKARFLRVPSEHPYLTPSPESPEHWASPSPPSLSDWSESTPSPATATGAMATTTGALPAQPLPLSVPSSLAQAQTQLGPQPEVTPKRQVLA
Description: (§1) Unconjugated anti-Notch3 antibodies, hu28 and hu75, were examined for cell surface binding activity to Notch3 expressing cell lines by flow cytometry. Fluorescence activated cell sorting (FACS) analysis was conducted according to standard procedures. Cells were rinsed in HBSS with calcium chloride and magnesium chloride (herein termed HBSS++), harvested using trypsin without EDTA and neutralized with medium containing FBS. Cells were incubated on ice for 30 minutes with 4 μg/mL anti-Notch3 antibodies, hu28 and hu75, in HBSS++containing 3% HICS (heat-inactivated calf serum). Cells were washed three times with cold HBSS++, 3% HICS buffer. Cells were incubated in allophycocyanin-conjugated AffiniPure F(ab′)2 fragment goat anti-human IgG, Fc fragment secondary antibody (Jackson ImmunoResearch Laboratories, Inc., West Grove, Pa.) at 10 μg/mL for 30 minutes on ice in the dark. Cells were washed once with cold HBSS++/3% HICS buffer. Cells were resuspended in HBSS-++/3% HICS, 25 mM HEPES, 1 mM MgCl2 and 25 μg/ml DNaseI. 7-AAD (7-Amino-Actinomycin D) was added for exclusion of nonviable cells. Live cells were analyzed on a BD FACSCalibur flow cytometer (BD Biosciences, San Jose, Calif.). Mean fluorescence intensity (MFI) from channel FL-4 was calculated with FlowJo flow cytometry analysis software (Ashland, Oreg.).

[2] = system: Site 2 (S2)-cleavage of the Notch3 receptor in HCC2429 and MDA-MB-468 cells; test: S2-cleavage assay (western blot, D11B8); assay type: cell-based, human; details: 5 μg/ml, 24 hours; FIG. 9
Description: To confirm that binding of anti-Notch3 antibody hu75, but not hu28, to the NRR domain of Notch3 is accompanied by a decrease in S2-cleavage, western blot analysis was performed. The rabbit monoclonal anti-Notch3 antibody D11B8 (Cell Signaling Technologies) recognizes the Notch3 C-terminal fragments that are products of S1 and S2 proteolytic cleavage events. […] The anti-Notch3 antibody hu28 bound to LNR-C and HD1 domains that are located on a linear, covalently linked region of the NRR domain that is N-terminal to the S1-site. An inhibitory antibody is expected to decrease the detection of S2-cleaved Notch3 by stabilizing the NRR domain in an auto-inhibitory conformation thus preventing S2-cleavage, while a non-inhibitory antibody is not expected to have an effect on S2-cleavage.
Site 2 (S2)-cleavage of the Notch3 receptor was assessed by western blot analysis of the protein using the D11B8 (Cell Signaling Technologies) antibody which recognizes an epitope surrounding Glu2312 in the C-terminal domain. HCC2429 and MDA-MB-468 breast cancer cells were used to examine the effects of inhibitory anti-Notch3 antibody hu75 and non-inhibitory anti-Notch3 antibody hu28 on S2-cleavage. For the assay, 1-2.5×10^6 cells were plated in complete growth medium. […] Notch3 was detected with D11B8 antibody and, as a loading control, anti-GAPDH (Sigma) using standard western blot procedures.

[3] = biological target: U2OS/hNotch3 (Homo sapiens, UniProt Q9UM47); test: Flow cytometry (FACS) binding, U2OS/hNotch3; design: U-2 OS cells stably over-expressing human full length Notch3 protein on cell surface; expressed in transfected cells; host or cells: U-2 OS (human osteosarcoma); details: 4 μg/mL antibody; positive control cell line
Sequence of U2OS/hNotch3 (Q9UM47 40-2321): as above
Description: as §1

[4] = biological target: T2, full-length human Notch3 expressed on the cell surface of U2OS/hNotch3 cells (Homo sapiens, UniProt Q9UM47); test: Cell-based ELISA, U2OS/hNotch3 cells; details: Table 29; two value columns; LB = lacked binding
T2 construct: U-2 OS cells stably over-expressing human or mouse full length Notch3 protein on cell surface; expressed in transfected cells; host or cells: U-2 OS (human osteosarcoma)
T2 sequence (Q9UM47 40-2321): as above
Description: Humanized hu28 and hu75, and rat-human chimeric, ch28 and ch75, anti-Notch3 antibodies were screened for cell surface Notch3 binding in a cell-based ELISA. U-2 OS cells stably over-expressing human or mouse full length Notch3 protein on cell surface (hereinafter U2OS/hNotch3 and U2OS/mNotch3, respectively) were plated at 50,000 cells/well in 96 well plates (white opaque, BD/VWR) the day before ELISA assay. On the day of the ELISA, culture media was removed from wells and serially diluted (1:3 in blocking buffer) antibody solutions were applied to the plate. Plates were incubated at room temperature for 2 hours before being washed with PBS-Mg/Ca. HRP-conjugated secondary antibody was then applied and incubated with cells for 1 hour as described above for recombinant protein ELISA. Plates were washed with PBS-Mg/Ca before being developed with Pico-Chemiluminescent developing kit (Thermal Scientific), and chemiluminescence measurements were performed per manufacturer's instructions. Data plotting and analyses were performed with Microsoft Excel and Graphpad-Prism software.
Unconjugated anti-Notch3 antibodies, anti-Notch3 ADCs and a negative control antibody (huNeg8.8) were screened for cell surface binding activity to Notch3 expressing cell lines in a cell-based ELISA. […]

[5] = biological target: T3, OVCAR3 (Homo sapiens, UniProt Q9UM47); test: Flow cytometry (FACS) binding, OVCAR3; details: 4 μg/mL antibody
T3 construct: Notch3 endogenously expressing cells MDA-MB-468, HCC2429 and OVCAR3; endogenous in cells; host or cells: OVCAR3
T3 sequence (Q9UM47 40-2321): as above
Description: as §1

MFI [1]: 1192
MFI [3]: 256
EC50 [4]: 300 pM and 260 pM
MFI [5]: 116
B1: hu28 VH1.0/VL1.0: humanized r28 variant VH1.0/VL1.0, anti-Notch3 antibody (VH SEQ ID NO: 13, VL SEQ ID NO: 25) (antibody, V domains shown)
VH: EVQLVESGGGLVQPGGSLRLSCAASGFTFRDYGMTWVRQAPGKGLEWVAYISSGSNYIYYAEAVKGRFTISRDNAKNSLYLQMNSLRAEDTAVYYCARRGPFVLDAWGQGTLVTVSS
VL: DIQMTQSPSSLSASVGDRVTITCKASQSINRYLHWYQQKPGKAPKLLIYNANGLQTGVPSRFSGSGSGTDFTLTISSLQPEDFATYYCLQHNTWPDTFGGGTKVEIK
detection of S1- and S2-cleaved Notch3 C-terminal fragments [2]: both S1- and S2-cleaved Notch3 C-terminal fragments were detected
